Assay results: patent US11066655B2, “RNA polymerase, methods of purification and methods of use” (President and Fellows of Harvard College, priority 2013, dated 2021)

Tests used:
[1] = tested on: DNA templates S5P-tDNAR or T7P-tDNAR; assay: Run-off synthesis of small RNA (tRNA^Arg), analytical scale, denaturing gel; assay type: biochemical; conditions: for N+1 product in tRNA^Arg synthesis: 37° C., 22, 67, 200 nM enzyme; for N+1 product in run-off products: all temperatures (16° C., RT, 37° C.) and KCl concentrations examined
From the text: FIGS. 10A-10B depict a comparison of T7 and Syn5 RNA polymerase in run-off synthesis of small RNA. A) Effect of temperature and salt concentration on the RNA synthesis by T7 and Syn5 RNA polymerase. B) Similar as A) except that His-tagged T7 RNA polymerase was used.
FIGS. 11A-11B depict synthesis of tRNA^Arg by Syn5 and T7 RNA polymerase. A) Synthesis of tRNA^Arg at analytical scale by various amounts of Syn5 and T7 RNA polymerase. Using radioactively labeled CTP, the tRNA^Arg and N+1 product (as marked) produced by 22, 67, 200 nM Syn5 and T7 RNA polymerase at 37° C. are shown. […] The DNA encoding E. coli tRNA^ArgACG is directly downstream of a Syn5 or T7 promoter for the cognate RNA polymerase to synthesize run-off tRNA transcript. B) Synthesis of tRNA^Arg at preparative scale by Syn5 and T7 RNA polymerase. The sequencing gel is showing the analysis of the total RNA products by Syn5 and T7 RNAP at 37° C. in a 200 µl reaction. RNAs were purified by either ZYMO RNA clean kit or phenol/chloroform extraction followed by ethanol precipitation (P/C/E), as noted on top of the gel. The native tRNA^Arg (with modifications) overexpressed and purified from E. coli cells was used as a size marker. The two major bands in the total RNAs are tRNA^Arg and N+1 product as marked.
FIGS. 12A-12B depict synthesis of long run-off product and the incorporation of modified nucleotides by Syn5 and T7 RNA polymerase. A) On the linearized plasmid template as shown in the schematic, the production of RNA by either RNA polymerase (10 nM) was analyzed on agarose gel as lane 2. […] Lane 3 and 4 show the same RNA synthesis when CTP was replaced by 5mCTP and UTP by Ps-UTP, respectively. B) Incorporation of UTP or Ps-UTP into small RNA by 22, 67, and 200 nM Syn5 and T7 RNA polymerase as analyzed by denaturing TBE polyacrylamide gel. Full-length run-off product and the N+1 product are shown.
DNA templates for transcription assays were either plasmids or dsDNA fragments made of synthesized oligonucleotides. To test the processivity of Syn5 and T7 RNAP, a single Syn5 or T7 promoter plus 3 guanosine downstream of the promoter (Syn5 5′-ATTGGGCACCCGTAAGGG-3′ (SEQ ID NO:1) or T7 5′-[…]-3′) (SEQ ID NO:2) was inserted between the BamHI and XbaI sites of plasmid pUC19 to form pUC19-S5P or pUC19-T7P. The templates for run-off tRNA^Arg synthesis were formed by annealing of two complementary synthesized DNA oligos of which sequences are as following:
For the results shown in FIG. 10, reaction mixtures (10 μl) contained 40 mM Tris-HCl pH 8.0, 6 mM MgCl2, 2 mM spermidine, 10 mM DTT, 200 µm[…]P, GTP and UTP, 10 µM [[…]-^32P]CTP, 1.5 U/µl RNaseOUT™ recombinant ribonuclease inhibitor, 0.5 μM DNA templates S5P-tDNAR or T7P-tDNAR, 100 nM Syn5 or T7 RNAP, and various amount of KCl as noted in the figure. Reactions were carried out at various temperatures of 16° C., room temperature, or 37° C. for 30 min before adding of one unit of DNase I to each reaction mixture and an additional incubation of 15 min at 37° C. Reactions were then terminated by the addition of 4 µl of loading dye containing 95% formamide and 40 mM EDTA. Samples were then heated at 90° C. for 1 min and 4 µl sample each was loaded onto 15% TBE-Urea denaturing polyacrylamide gels. After electrophoresis, gels were dried and analyzed using a Fuji BAS 1000 Bioimaging Analyzer.
For the results shown in FIG. 11A, reaction mixtures (10 μl) containing 40 mM Tris-HCl pH 8.0, 6 mM MgCl2, 2 mM spermidine, 10 mM DTT, 200 µM[…]P, GTP and UTP, 10 µM [[…]-^32P]CTP, 1.5 U/µl RNaseOUT™ recombinant ribonuclease inhibitor, 0.5 μM DNA templates S5P-tDNAR or T7P-tDNAR, and various amount of Syn5 or T7 RNAP were incubated at 37° C. for 30 min before adding of one unit of DNase I to each reaction mixture and an additional incubation of 15 min at 37° C. Reactions were then terminated by the addition of 4 µl of loading dye containing 95% formamide and 40 mM EDTA. […]

pET24-S5RNAP DNA = assay: Catalytic efficiency at various ribonucleotide concentrations (filter-binding assay); assay type: biochemical; conditions: for kcat/KmGTP / Km / kcat: GTP varied; for Km / KmGTP (results obtained with UTP): other NTPs 1 mM; for Km: 24° C., 5 min, read-out: apparent Km for GTP; for Km / kcat: 160 mM KCl for Syn5 RNAP, omitted for T7 RNAP; for kcat/KmGTP (results obtained with UTP) / kcatGTP (results obtained with UTP) / KmGTP (results obtained with UTP): UTP varied; for kcatGTP (results obtained with UTP) / KmGTP (results obtained with UTP): FIG. 7C/7D
Procedure: FIGS. 7A-7D depict a comparison of transcription efficiency of Syn5 and T7 RNAP at various ribonucleotide concentrations. A) Incorporation of NMP by Syn5 RNAP at various GTP concentrations. B) Incorporation of NMP by T7 RNAP at various GTP concentrations. C) Incorporation of NMP by Syn5 RNAP at various UTP concentrations. D) Incorporation of NMP by T7 RNAP at various UTP concentrations. Varied ribonucleotide concentrations were 7.8, 15.6, 31.3, 62.5, 125, 250, 500, 1000 µM while other NTPs were all at 1 mM, RNAP and template were both 20 nM, and the reaction time was 5 min at 24° C. 160 mM KCl was added for Syn5 RNAP reactions.
For the assays described in FIG. 7, reaction mixtures contained 40 mM Tris-HCl (pH 8.0), 6 mM MgCl2, 2 mM spermidine, 10 mM DTT, 20 nM Syn5 or T7 RNAP, 20 nM pET24-S5RNAP DNA, 1 mM ^3H-ATP (20 cpm/pmole), CTP, UTP (or GTP), and varying amounts of GTP (or UTP). 160 mM KCl was added for the Syn5 RNAP reactions. After various times the reactions were stopped by the addition of 20 mM EDTA. 4 µl of the mixtures were then loaded onto Whatman DE81 filter paper disks and the disks were washed to remove the unincorporated ^3H-ATP. The amount of insoluble ^3H-AMP, corresponding to nucleotides incorporated into newly synthesized RNA, was measured using a scintillation counter. The data were analyzed using Prism software.

For “T7 RNAP: RNA polymerase encoded by bacteriophage T7, from New England Biolabs [reference compound]”, the “run-off synthesis at high salt” value ([1]; 160 mM KCl) was “little activity”, the “N+1 product in tRNA^Arg synthesis” value [1] was “more N+1 product than the desired product” and the “N+1 product in run-off products” value [1] was “abundant amounts of the N+1 product”. For the same molecule, the “products when UTP replaced by Ps-UTP” value ([1]; small RNA, radioactively labeled CTP) was “produced predominantly N+1 products”, the kcat/KmGTP (pET24-S5RNAP DNA) was 90000 M⁻¹ s⁻¹ and the Km (pET24-S5RNAP DNA) was 45.8 ± 9 µM. For the same molecule, the kcat (pET24-S5RNAP DNA) was 4.1 s⁻¹, the kcat/KmGTP (results obtained with UTP) (pET24-S5RNAP DNA) was 290000 M⁻¹ s⁻¹ and the “kcatGTP (results obtained with UTP)” value (pET24-S5RNAP DNA) was 6.8 s⁻¹. The “KmGTP (results obtained with UTP)” value (pET24-S5RNAP DNA) was 23.3 ± 5.5 µM.

B1: Syn5 RNAP: single subunit DNA-dependent RNA polymerase from marine cyanophage Syn5, amino acid sequence SEQ ID NO:23 (protein)
chain: MSFDLIARQLQRETEAAELARKRLQDARREANERSYASSNIESRKAIATFLDPIAQRIGERLFTLRRGTGAVDAAEVYKHLKNADHHHLALITMKTALDVLGKDPEPQIQQLTTAIGRNIQLELRLTYYAEENPELYKQASRFFHAGTGTRQKATVIKLKFNREGIEWDQWSRVTCHKVGQWLMLAMADVTGWIERATDRTSGGRKTKTRICYSREFLQHRDTILAAAEQLAFCQWPMLCPPIEWSNDHNGGYLSEQIRRVNPLIRKTGPLGTRKQGDIPLAMLNNLQGQAYKVNPEVLDIANHCYESNVTVGKFIRHAPLPVPPSPGEDCTEDQLTAYKRARREAEDFNAQISQKNWRTTEVMYVARKYADEASFWMPASFDYRGRVYFLNTALNPQGTDFDKALLYFAEEGPVNEWWLSFHVATTYGLDKETMVNRVQWARDNHELIDRIASDPVRHTEWHDADEPWCFLAACLEYKACVIDGTKQTSGLPIGIDATCSGLQHLAAMTRCGRTAALVNVTPTDKPADAYKTVAQASLKHLPKEQHEWITRKVTKRPVMCTPYGVTMSSARGYIRDQLVKDGHKEDLRSPGVLNGIVKAIFNEAIPEVIPGPVQVMAWLKRSAGQIIDRGDSTITWTTPSGFEVVQDLKKSKTYEVKTRIMGGARIKLQVGDGFTDEPDRDHHKSALAPNVVHSNDASLLHLTFAFWDKPFTVIHDCVLGRSCDMDQMGSDIRLHFAEMYKADVMQDWADQVGVELPVDLIKNTLDIDSVNQSLYFFS
modifications: Amino acid sequence of a cyanophage Syn5 RNAP
With B1 the “run-off synthesis at high salt” value ([1]; 250 mM KCl) was “produces significant amounts of product”, the “N+1 product in tRNA^Arg synthesis” value [1] was “absence of N+1 product” and the “N+1 product in run-off products” value [1] was “did not contain detectable N+1 product band”. For the same molecule, the kcat/KmGTP (pET24-S5RNAP DNA) was 180000 M⁻¹ s⁻¹, the Km (pET24-S5RNAP DNA) was 13.9 ± 5.6 µM and the kcat (pET24-S5RNAP DNA) was 2.5 s⁻¹. The kcat/KmGTP (results obtained with UTP) (pET24-S5RNAP DNA) was 380000 M⁻¹ s⁻¹, the “kcatGTP (results obtained with UTP)” value (pET24-S5RNAP DNA) was 2.8 s⁻¹ and the “KmGTP (results obtained with UTP)” value (pET24-S5RNAP DNA) was 7.4 ± 1.5 µM.
